B1: (UGGAA)8 (ssRNA)
RNA: UGGAAUGGAAUGGAAUGGAAUGGAAUGGAAUGGAAUGGAA
B2: (UG)8 (ssRNA)
RNA: UGUGUGUGUGUGUGUG
B3: (UGGAA)4 (ssRNA)
RNA: UGGAAUGGAAUGGAAUGGAA
B4: (UG)4 (ssRNA)
RNA: UGUGUGUG

Columns and labels:
[1] = biological target: T1, TDP-43 WT (UniProt Q13148 1-414); test: EMSA
[2] = biological target: T1, TDP-43 WT; test: CD
[3] = biological target: T1, TDP-43 WT; test: CD; remark: listed apart in the source

T1 sequence (Q13148 whole entry): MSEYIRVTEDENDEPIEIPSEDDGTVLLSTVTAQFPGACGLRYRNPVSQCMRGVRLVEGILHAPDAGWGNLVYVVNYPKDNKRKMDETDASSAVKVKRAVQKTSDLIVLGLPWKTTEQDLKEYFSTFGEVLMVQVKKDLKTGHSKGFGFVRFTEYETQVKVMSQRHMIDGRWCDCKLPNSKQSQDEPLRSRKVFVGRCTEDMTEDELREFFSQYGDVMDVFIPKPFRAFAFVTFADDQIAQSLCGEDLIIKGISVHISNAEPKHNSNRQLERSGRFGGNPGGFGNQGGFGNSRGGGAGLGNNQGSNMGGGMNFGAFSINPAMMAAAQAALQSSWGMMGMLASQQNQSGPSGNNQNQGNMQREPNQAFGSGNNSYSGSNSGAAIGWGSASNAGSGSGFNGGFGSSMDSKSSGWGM

Binder | binding result [1] | other results
B1 | binds | 
B2 | binds | 
B3 |  | binding result [2]: binds
B4 |  | binding result [3]: binds
